B1: anti-BCMA/anti-CD3 bispecific control antibody Benchmark (bispecific antibody, human IgG1, kappa, L234A L235A)
heavy 1: not shown
light 1: not shown
heavy 2: not shown
light 2: EVQLLESGGGLVQPGGSLRLSCAASGFTFSTYAMNWVRQAPGKGLEWVSRIRSKYNNYATYYADSVKGRFTISRDDSKNTLYLQMNSLRAEDTAVYYCVRHGNFGNSYVSWFAYWGQGTLVTVSSASVAAPSVFIFPPSDEQLKSGTASVVCLLNNFYPREAKVQWKVDNALQSGNSQESVTEQDSKDSTYSLSSTLTLSKADYEKHKVYACEVTHQGLSSPVTKSFNRGEC
notes: Control from Celgene (US20190263920A1): two anti-BCMA Fabs and one anti-CD3 Fab; also called Celgene BM; celgene BM
B2: anti-BCMA/anti-CD3 multispecific antibody PC3 (bispecific antibody, human IgG1, lambda, L234A L235A)
chain: QVQLVESGGGLVQPGGSLRLSCAASGFTFNSACMGWFRQAPGKGREGVSRIETGYGGTVYADSVKGRFTISRDNSKNTVYLQMNSLRAEDTAVYYCAAKRSWCTPTWWHELDYNYWGQGTQVTVSSGEPKSSDKTHTCPPCPAPEAAGGPSVFLFPPKPKDTLMISRTPEVTCVVVDVSHEDPEVKFNWYVDGVEVHNAKTKPREEQYNSTYRVVSVLTVLHQDWLNGKEYKCKVSNKALAAPIEKTISKAKGQPREPQVCTLPPSREEMTKNQVSLSCAVKGFYPSDIAVEWESNGQPENNYKTTPPVLDSDGSFFLVSKLTVDKSRWQQGNVFSCSVMHEALHNHYTQKSLSLSPGK
heavy: EVQLVESGGGLVQPGGSLRLSCAASGFTFNTYAMNWVRQAPGKGLEWVARIRSKYNNYATYYADSVKDRFTISRDDSKNTAYLQMNNLKTEDTAMYYCVRHGNFGNSYVSWFAYWGQGTLVTVSSASTKGPSVFPLAPSSKSTSGGTAALGCLVKDYFPEPVTVSWNSGALTSGVHTFPAVLQSSGLYSLSSVVTVPSSSLGTQTYICNVNHKPSNTKVDKKVEPKSCDKTHTCPPCPAPEAAGGPSVFLFPPKPKDTLMISRTPEVTCVVVDVSHEDPEVKFNWYVDGVEVHNAKTKPREEQYNSTYRVVSVLTVLHQDWLNGKEYKCKVSNKALAAPIEKTISKAKGQPREPQVYTLPPCREEMTKNQVSLWCLVKGFYPSDIAVEWESNGQPENNYKTTPPVLDSDGSFFLYSKLTVDKSRWQQGNVFSCSVMHEALHNRFTQKSLSLSPGK
light: QVQLVESGGGLVQPGGSLRLSCAASGYSSNVACMAWYRQAPGKGLEWVATIVADFGTTNYAASVKGRFTISQDNSKNTVYLQMNSLRAEDTAVYYCAATQRGGIDWCDEINYWGQGTLVTVSSGGGGSELVVTQEPSLTTSPGGTVTLTCRSSTGAVTTSNYANWVQQKPGQAPRGLIGGTNKRAPGTPARFSGSLLGGKAALTITGVQPEDEAEYYCALWYSNLWVFGGGTKLTVLGQPKANPTVTLFPPSSEELQANKATLVCLISDFYPGAVTVAWKADGSPVKAGVETTKPSKQSNNKYAASSYLSLTPEQWKSHRSYSCQVTHEGSTVEKTVAPTECS
notes: Trivalent; three chains; human IgG1 knobs-into-holes Fc
B3: anti-BCMA/anti-CD3 multispecific antibody PC1 (bispecific antibody, human IgG1)
chain 1: QVQLVESGGGLVQPGGSLRLSCAASGYSSNVACMAWYRQAPGKGLEWVATIVADFGTTNYAASVKGRFTISQDNSKNTVYLQMNSLRAEDTAVYYCAATQRGGIDWCDEINYWGQGTLVTVSSGGGGSGGGGSQVQLVESGGGLVQPGGSLRLSCAASGFTFNSACMGWFRQAPGKGREGVSRIETGYGGTVYADSVKGRFTISRDNSKNTVYLQMNSLRAEDTAVYYCAAKRSWCTPTWWHELDYNYWGQGTQVTVSSGEPKSSDKTHTCPPCPAPEAAGGPSVFLFPPKPKDTLMISRTPEVTCVVVDVSHEDPEVKFNWYVDGVEVHNAKTKPREEQYNSTYRVVSVLTVLHQDWLNGKEYKCKVSNKALAAPIEKTISKAKGQPREPQVCTLPPSREEMTKNQVSLSCAVKGFYPSDIAVEWESNGQPENNYKTTPPVLDSDGSFFLVSKLTVDKSRWQQGNVFSCSVMHEALHNHYTQKSLSLSPGK
chain 2: ELVVTQEPSLTTSPGGTVTLTCRSSTGAVTTSNYANWVQQKPGQAPRGLIGGTNKRAPGTPARFSGSLLGGKAALTITGVQPEDEAEYYCALWYSNLWVFGGGTKLTVLGGGGSGGGGSGGGGSEVQLVESGGGLVQPGGSLRLSCAASGFTFNTYAMNWVRQAPGKGLEWVARIRSKYNNYATYYADSVKDRFTISRDDSKNTAYLQMNNLKTEDTAMYYCVRHGNFGNSYVSWFAYWGQGTLVTVSSGEPKSSDKTHTCPPCPAPEAAGGPSVFLFPPKPKDTLMISRTPEVTCVVVDVSHEDPEVKFNWYVDGVEVHNAKTKPREEQYNSTYRVVSVLTVLHQDWLNGKEYKCKVSNKALAAPIEKTISKAKGQPREPQVYTLPPCREEMTKNQVSLWCLVKGFYPSDIAVEWESNGQPENNYKTTPPVLDSDGSFFLYSKLTVDKSRWQQGNVFSCSVMHEALHNRFTQKSLSLSPGK
notes: Trivalent; two chains; human IgG1 knobs-into-holes Fc

The binders below were run against T1, human BCMA on cells (human, UniProt Q02223 1-184) (assay: flow cytometry, NCI-H929 cells).
T1 construct: whole, on cells; also called CHO-hBCMA cells; U266 cells
T1 sequence (looked up): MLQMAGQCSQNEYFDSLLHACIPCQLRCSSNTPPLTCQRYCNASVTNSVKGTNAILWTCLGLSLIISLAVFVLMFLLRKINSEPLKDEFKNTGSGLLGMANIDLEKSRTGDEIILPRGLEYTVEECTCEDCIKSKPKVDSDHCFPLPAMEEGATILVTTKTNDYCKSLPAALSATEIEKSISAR
Method: (§1) NCI-H929 cells (BCMA+++), MM1S cells (BCMA++), and RPMI-8226 cells (BCMA+) in the logarithmic growth phase were taken, adjusted to a cell density of 5×10⁶-10×10⁶ cells/mL using RPMI medium (Hyclon, catalog No. SH30809.01) containing 2% FBS (fetal bovine serum), respectively, and seeded in a 96-well U-bottom cell culture plate (Costar, catalog No. 3799) at 50 μL per well. The test antibodies at different concentrations were prepared using the medium described above. […] The antibodies at different concentrations were added to the 96-well cell culture plate described above at 50 μL per well, mixed well and incubated at 4° C. for 1 h. The cells were washed with pre-cooled running buffer (MACS, catalog No. 130-091-221), and the supernatant was discarded. Pre-cooled fluorescent labeled goat anti-human IgG antibodies (Jackson, catalog No. 109-116-170) were added, and the cells were resuspended at 100 μL per well, mixed well and incubated at 4° C. for 30 min. After washing, 100 μL of pre-cooled running buffer was added to resuspend the cells. The cells were mixed well and collected while flowing on an Attune™ NxT flow cytometer, and the data was analyzed using Graphpad Prism5 software. FIGS. 7-9 and Table 11 show the binding ability of the anti-BCMA/anti-CD3 multispecific antibodies to NCI-H929 cells (BCMA+++), MM1S cells (BCMA++), and RPMI-8226 cells (BCMA+).

B1 and B2 are within 1.5-fold of each other in EC50: 0.821 nM for the first, 0.837 nM for the second.

With B3 the EC50 was 1.26 nM.

Compared with B1, B2 is higher in “Top(MFI)” value: 166000 MFI for the first, 223000 MFI for the second.

In the case of B3, the “Top(MFI)” value is reported as 226000 MFI.

What follows are binders tested against T1, human BCMA on cells (assay: cell-based or functional assay).

Going from B1 to B2, the “Lysis EC50, RPMI-8226 cells with human PBMCs (E:T 10:1, 24 h, LDH release)” value falls from 0.271 nM to 0.0142 nM (19-fold).

With B3 the “Lysis EC50, RPMI-8226 cells with human PBMCs (E:T 10:1, 24 h, LDH release)” value was 0.007 nM.

Compared with B1, B2 is higher in “Maximum lysis rate, RPMI-8226 cells with human PBMCs” value: 29% for the first, 39% for the second.

In the case of B3, the “Maximum lysis rate, RPMI-8226 cells with human PBMCs” value is reported as 29%.

The binders below were run against T2, human CD3e (Acro, Cat. No. CDE-H5223) (human, UniProt P07766 23-126) (assay: SPR (Biacore T200), antibody captured by anti-hIgG, human CD3e as analyte, 1:1 model).
T2 construct: also called human CD3e protein; hCD3e
T2 sequence (P07766 23-126 limits assumed): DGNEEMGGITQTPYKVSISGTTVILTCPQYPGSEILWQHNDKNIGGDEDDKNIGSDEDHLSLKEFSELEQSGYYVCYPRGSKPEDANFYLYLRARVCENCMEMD
Method: (§2) The affinity of the test antibody for human CD3e or human BCMA protein was determined by Biacore T200 (GE) as follows:
(§3) The response signals were detected in real time using Biacore software, and association and dissociation curves were obtained. The buffer used in the experiment was Biacore universal buffer (137 mM NaCl, 2.7 mM KCl, 10 mM Na₂HPO₄.12H₂O, 1.8 mM KH₂PO₄. 0.05% surfactant P-20 (w/v), pH 7.4). […] The flow rate in the flow cell was at 50 μL/min, the association was performed for 240 s, the dissociation was performed for 1400 s, the regeneration was performed using 3 M MgCl (GE) for 60 s, and the baseline was stable. Results were obtained by calculation according to the affinity and kinetics 1:1 binding mode in biacore evaluation software.

B1 and B2 are within 1.5-fold of each other in Kd: 1.6 nM for the first, 1.17 nM for the second.

B3 showed a Kd of 1.43 nM.

Target: T1, human BCMA on cells
Experiment: cell-based or functional assay
Remark: another data set of the same source

Compared with B1, B2 is 2.1-fold lower in “Lysis EC50, MM1S cells with human PBMCs (E:T 10:1, 24 h, LDH release)” value: 0.0847 nM for the first, 0.0407 nM for the second.

With B3 the “Lysis EC50, MM1S cells with human PBMCs (E:T 10:1, 24 h, LDH release)” value was 0.0084 nM.

First: B1
Second: B2
The “Maximum lysis rate, MM1S cells with human PBMCs” value of the first is lower: 23% for the first, 36% for the second.

With B3 the “Maximum lysis rate, MM1S cells with human PBMCs” value was 26%.

Each binder was assayed against T3, human BCMA protein (human, UniProt Q02223 1-54, limits assumed) (assay: SPR (Biacore T200), antibody captured by anti-hIgG, human BCMA as analyte, 1:1 model).
T3 construct: also called hBCMA; Antigen BCMA
T3 sequence (looked up): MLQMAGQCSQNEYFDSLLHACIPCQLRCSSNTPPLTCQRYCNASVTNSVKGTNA
Method: as §2, §3

First: B1
Second: B2
The Kd of the first is 24-fold higher: 0.821 nM for the first, 0.0347 nM for the second.

For B3, the Kd was 0.0396 nM.

Target: T1, human BCMA on cells
Experiment: cell-based or functional assay
Remark: another data set of the same source

Going from B1 to B2, the “Lysis EC50, NCI-H929 cells with human PBMCs (E:T 10:1, 24 h, LDH release)” value rises from 0.0444 nM to 0.187 nM (4.2-fold).

In the case of B3, the “Lysis EC50, NCI-H929 cells with human PBMCs (E:T 10:1, 24 h, LDH release)” value is reported as 0.0674 nM.

First: B1
Second: B2
The “Maximum lysis rate, NCI-H929 cells with human PBMCs” value of the first is higher: 41% for the first, 35% for the second.

With B3 the “Maximum lysis rate, NCI-H929 cells with human PBMCs” value was 36%.

The binders below were run against T1, human BCMA on cells (assay: flow cytometry, MM1S cells).
Method: as §1

B1 and B2 are within 1.5-fold of each other in EC50: 0.381 nM for the first, 0.338 nM for the second.

For B3, the EC50 was 0.35 nM.

Going from B1 to B2, the “Top(MFI)” value rises from 71400 MFI to 124000 MFI.

In the case of B3, the “Top(MFI)” value is reported as 100000 MFI.

Each binder was assayed against T4, T cell surface CD3 (human, UniProt P07766 23-207) (assay: flow cytometry, human CD3+ T cells).
T4 construct: whole, on cells; also called CD3^+ T cells
T4 sequence (P07766 23-207): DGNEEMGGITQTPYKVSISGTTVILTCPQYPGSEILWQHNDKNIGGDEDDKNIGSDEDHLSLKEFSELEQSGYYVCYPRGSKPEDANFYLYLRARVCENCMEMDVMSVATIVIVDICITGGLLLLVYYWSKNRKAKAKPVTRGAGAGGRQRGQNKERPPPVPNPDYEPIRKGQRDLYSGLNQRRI
Method: Human PBMC cells were sorted for CD3⁺ T cells using CD3 magnetic beads (Miltenyi, catalog No. 130-097-043): the cryopreserved PBMCs were thawed, and washed by centrifugation twice for counting. Running buffer (MACS, catalog No. 130-091-221) was added in a cell-to-buffer ratio of 10⁷:80 μL, CD3 beads were added in a cell-to-bead ratio of 10⁷:20 μL, and the mixture was mixed well and incubated at 4° C. for 15 min. The cells were washed with buffer in a cell-to-buffer ratio of 10⁷:1-2 mL. After centrifugation, the supernatant was discarded, and 500 μL of buffer was added to resuspend the cell pellet. The LS sorting column (Miltenyi, catalog No. 130-042-401) was placed on the MidiMACS Starting Kit (LS) magnetic rack (Miltenyi, catalog No. 130-091-051). After rinsing, the cell suspension was added and washed thrice. The LS sorting column was removed from the magnetic rack and placed on a clean centrifuge tube and 5 mL buffer was added to collect the sorted CD3⁺ T cells. After counting, the CD3⁺ T cells were adjusted to a cell density of 5×10⁶-10×10⁶ cells/mL using RPMI medium (Hyclone, catalog No. SH30809.01) containing 2% FBS (fetal bovine serum) and seeded in a 96-well U-bottom cell culture plate (Costar, catalog No. 3799) at 50 μL per well. The test antibodies at different concentrations were prepared using the medium described above. […] The antibodies at different concentrations were added to the 96-well cell culture plate described above at 50 μL per well, mixed well and incubated at 4° C. for 1 h. The cells were washed with pre-cooled running buffer (MACS, catalog No. 130-091-221), and the supernatant was discarded. Pre-cooled fluorescent labeled goat anti-human IgG antibodies (Jackson, catalog No. 109-116-170) were added, and the cells were resuspended at 100 μL per well, mixed well and incubated at 4° C. for 30 min. After washing, 100 μL of pre-cooled running buffer was added to resuspend the cells.

First: B1
Second: B2
The EC50 of the first is 4.7-fold lower: 18.1 nM for the first, 85.8 nM for the second. The first is the more potent here.

With B3 the EC50 was 485 nM.

First: B1
Second: B2
The “Top(MFI)” value of the first is lower: 93500 MFI for the first, 98400 MFI for the second.

In the case of B3, the “Top(MFI)” value is reported as 92900 MFI.

— US20240182592A1 (CHIA TAI TIANQING PHARMACEUTICAL GROUP, published 2024)
